Results as given in patent US20200262877A1, “ION CHANNEL-BINDING PEPTIDES AND METHODS OF USE THEREOF” (priority 2017, published 2020).

Legend:
[1] = biological target: T1, Nav1.7 (Homo sapiens, UniProt Q15858); assay: cell-based; format: cell-based; conditions: 100% = no change; for Activity of Nav1.7 with peptide, expressed as a percentage of the reference compound: peptide at 0.2 μM; for Activity of Nav1.7 with peptide (percentage of the reference compound): peptide at 20 μM
T1 construct: host or cells: HEK293 or CHO

[2] = biological target: Nav1.5 (Homo sapiens, UniProt Q14524); assay: in vitro; conditions: 100% = no change; for Activity of Nav1.5 with peptide, expressed as a percentage of the reference compound: peptide at 0.2 μM; for Activity of Nav1.5 with peptide (percentage of the reference compound): peptide at 20 μM
Procedure, shortened: (§1)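 Peptides were tested in duplicate at final 20 μM and 200 nM, with concentration set by amino acid analysis, in HEPES-buffered saline. They were applied for at least 5 min to HEK293 or CHO cells transfected with each channel. Currents were expressed as % inhibition, 1-(Ipeptide/Icontrol)×100, or % activation, Ipeptide/Icontrol×100, against a channel-matched reference compound.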

[3] = biological target: hERG (Homo sapiens, UniProt Q12809); assay: in vitro; conditions: 100% = no change, <100% = inhibition
Procedure, shortened: as §1

[4] = test system: GABA; assay: Ion channel panel (IonWorks Barracuda): GABA; format: cell-based; conditions: 100% = no change, <100% = inhibition
Procedure, shortened: as §1

[5] = biological target: T2, α4β2 (Homo sapiens, UniProt P17787+P43681); assay: Ion channel panel (IonWorks Barracuda): α4β2; format: cell-based; conditions: 100% = no change, <100% = inhibition
T2 construct: host or cells: HEK293 or CHO
Procedure, shortened: as §1

[6] = biological target: T3, Cav2.1 (Homo sapiens, UniProt O00555); assay: cell-based; conditions: 100% = no change, <100% = inhibition
T3 construct: host or cells: HEK293 or CHO
Procedure, shortened: as §1

[7] = biological target: T4, Cav2.2 (Homo sapiens, UniProt Q00975); assay: cell-based; conditions: 100% = no change, <100% = inhibition
T4 construct: host or cells: HEK293 or CHO
Procedure, shortened: as §1

[8] = biological target: T5, Kv2.1 (Homo sapiens, UniProt Q14721); assay: cell-based; conditions: 100% = no change, <100% = inhibition
T5 construct: host or cells: HEK293 or CHO
Procedure, shortened: as §1

[9] = biological target: T6, Kv1.3 (Homo sapiens, UniProt P22001); assay: cell-based; format: cell-based; conditions: 100% = no change, <100% = inhibition
T6 construct: host or cells: HEK293 or CHO
Procedure, shortened: as §1

[10] = biological target: T7, Kv1.1 (Homo sapiens, UniProt Q09470); assay: cell-based; format: cell-based; conditions: 100% = no change, <100% = inhibition
T7 construct: host or cells: HEK293 or CHO
Procedure, shortened: as §1

[11] = biological target: T8, Kv1.2 (Homo sapiens, UniProt P16389); assay: cell-based; format: cell-based; conditions: 100% = no change, <100% = inhibition
T8 construct: host or cells: HEK293 or CHO
Procedure, shortened: as §1

[12] = biological target: T9, 5HT3a (Homo sapiens, UniProt P46098); assay: Ion channel panel (IonWorks Barracuda): 5HT3a; format: cell-based
T9 construct: host or cells: HEK293 or CHO
T9 sequence (P46098 whole entry, looked up): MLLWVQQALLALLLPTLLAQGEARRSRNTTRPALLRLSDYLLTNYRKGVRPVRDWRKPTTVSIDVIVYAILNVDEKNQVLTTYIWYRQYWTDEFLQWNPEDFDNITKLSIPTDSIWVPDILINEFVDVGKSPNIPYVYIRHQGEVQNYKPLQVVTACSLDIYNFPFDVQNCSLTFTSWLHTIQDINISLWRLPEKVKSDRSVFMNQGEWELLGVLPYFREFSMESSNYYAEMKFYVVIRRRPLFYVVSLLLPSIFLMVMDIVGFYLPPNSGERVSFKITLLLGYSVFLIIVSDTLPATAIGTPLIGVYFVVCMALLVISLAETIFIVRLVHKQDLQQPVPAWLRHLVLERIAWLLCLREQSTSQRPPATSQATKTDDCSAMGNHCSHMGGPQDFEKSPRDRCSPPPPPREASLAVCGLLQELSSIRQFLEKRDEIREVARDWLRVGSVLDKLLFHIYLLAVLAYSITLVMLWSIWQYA
Procedure, shortened: as §1

[13] = biological target: T10, Kir2.1 (Homo sapiens, UniProt P63252); assay: Ion channel panel (IonWorks Barracuda): Kir2.1; format: cell-based; conditions: 100% = no change, <100% = inhibition
T10 construct: host or cells: HEK293 or CHO
Procedure, shortened: as §1

[14] = biological target: T11, NR2B (Homo sapiens, UniProt Q13224); assay: Ion channel panel (IonWorks Barracuda): NR2B; format: cell-based; conditions: 100% = no change, <100% = inhibition
T11 construct: host or cells: HEK293 or CHO
Procedure, shortened: as §1

[15] = biological target: T12, α3β4 (Homo sapiens, UniProt P30926+P32297); assay: Ion channel panel (IonWorks Barracuda): α3β4; format: cell-based; conditions: 100% = no change, <100% = inhibition
T12 construct: host or cells: HEK293 or CHO
Procedure, shortened: as §1

[16] = biological target: T13, TRPA1 (Homo sapiens, UniProt O75762); assay: Ion channel panel (IonWorks Barracuda): TRPA1; format: cell-based; conditions: 100% = no change, <100% = inhibition
T13 construct: host or cells: HEK293 or CHO
Procedure, shortened: as §1

[17] = biological target: T14, TRPV1 (Homo sapiens, UniProt Q8NER1); assay: Ion channel panel (IonWorks Barracuda): TRPV1; format: cell-based; conditions: 100% = no change, <100% = inhibition
T14 construct: host or cells: HEK293 or CHO
Procedure, shortened: as §1

[18] = biological target: T15, NR2A (Homo sapiens, UniProt Q12879); assay: Ion channel panel (IonWorks Barracuda): NR2A; format: cell-based; conditions: 100% = no change, <100% = inhibition
T15 construct: host or cells: HEK293 or CHO
Procedure, shortened: as §1

[19] = first of two Nav1.7 columns (probably TP1)
[20] = second of two Nav1.7 columns (probably TP2)
[21] = first of two Nav1.5 columns (probably TP1)
[22] = second of two Nav1.5 columns (probably TP2)

Chain of Nav1.5 (Q14524 whole entry): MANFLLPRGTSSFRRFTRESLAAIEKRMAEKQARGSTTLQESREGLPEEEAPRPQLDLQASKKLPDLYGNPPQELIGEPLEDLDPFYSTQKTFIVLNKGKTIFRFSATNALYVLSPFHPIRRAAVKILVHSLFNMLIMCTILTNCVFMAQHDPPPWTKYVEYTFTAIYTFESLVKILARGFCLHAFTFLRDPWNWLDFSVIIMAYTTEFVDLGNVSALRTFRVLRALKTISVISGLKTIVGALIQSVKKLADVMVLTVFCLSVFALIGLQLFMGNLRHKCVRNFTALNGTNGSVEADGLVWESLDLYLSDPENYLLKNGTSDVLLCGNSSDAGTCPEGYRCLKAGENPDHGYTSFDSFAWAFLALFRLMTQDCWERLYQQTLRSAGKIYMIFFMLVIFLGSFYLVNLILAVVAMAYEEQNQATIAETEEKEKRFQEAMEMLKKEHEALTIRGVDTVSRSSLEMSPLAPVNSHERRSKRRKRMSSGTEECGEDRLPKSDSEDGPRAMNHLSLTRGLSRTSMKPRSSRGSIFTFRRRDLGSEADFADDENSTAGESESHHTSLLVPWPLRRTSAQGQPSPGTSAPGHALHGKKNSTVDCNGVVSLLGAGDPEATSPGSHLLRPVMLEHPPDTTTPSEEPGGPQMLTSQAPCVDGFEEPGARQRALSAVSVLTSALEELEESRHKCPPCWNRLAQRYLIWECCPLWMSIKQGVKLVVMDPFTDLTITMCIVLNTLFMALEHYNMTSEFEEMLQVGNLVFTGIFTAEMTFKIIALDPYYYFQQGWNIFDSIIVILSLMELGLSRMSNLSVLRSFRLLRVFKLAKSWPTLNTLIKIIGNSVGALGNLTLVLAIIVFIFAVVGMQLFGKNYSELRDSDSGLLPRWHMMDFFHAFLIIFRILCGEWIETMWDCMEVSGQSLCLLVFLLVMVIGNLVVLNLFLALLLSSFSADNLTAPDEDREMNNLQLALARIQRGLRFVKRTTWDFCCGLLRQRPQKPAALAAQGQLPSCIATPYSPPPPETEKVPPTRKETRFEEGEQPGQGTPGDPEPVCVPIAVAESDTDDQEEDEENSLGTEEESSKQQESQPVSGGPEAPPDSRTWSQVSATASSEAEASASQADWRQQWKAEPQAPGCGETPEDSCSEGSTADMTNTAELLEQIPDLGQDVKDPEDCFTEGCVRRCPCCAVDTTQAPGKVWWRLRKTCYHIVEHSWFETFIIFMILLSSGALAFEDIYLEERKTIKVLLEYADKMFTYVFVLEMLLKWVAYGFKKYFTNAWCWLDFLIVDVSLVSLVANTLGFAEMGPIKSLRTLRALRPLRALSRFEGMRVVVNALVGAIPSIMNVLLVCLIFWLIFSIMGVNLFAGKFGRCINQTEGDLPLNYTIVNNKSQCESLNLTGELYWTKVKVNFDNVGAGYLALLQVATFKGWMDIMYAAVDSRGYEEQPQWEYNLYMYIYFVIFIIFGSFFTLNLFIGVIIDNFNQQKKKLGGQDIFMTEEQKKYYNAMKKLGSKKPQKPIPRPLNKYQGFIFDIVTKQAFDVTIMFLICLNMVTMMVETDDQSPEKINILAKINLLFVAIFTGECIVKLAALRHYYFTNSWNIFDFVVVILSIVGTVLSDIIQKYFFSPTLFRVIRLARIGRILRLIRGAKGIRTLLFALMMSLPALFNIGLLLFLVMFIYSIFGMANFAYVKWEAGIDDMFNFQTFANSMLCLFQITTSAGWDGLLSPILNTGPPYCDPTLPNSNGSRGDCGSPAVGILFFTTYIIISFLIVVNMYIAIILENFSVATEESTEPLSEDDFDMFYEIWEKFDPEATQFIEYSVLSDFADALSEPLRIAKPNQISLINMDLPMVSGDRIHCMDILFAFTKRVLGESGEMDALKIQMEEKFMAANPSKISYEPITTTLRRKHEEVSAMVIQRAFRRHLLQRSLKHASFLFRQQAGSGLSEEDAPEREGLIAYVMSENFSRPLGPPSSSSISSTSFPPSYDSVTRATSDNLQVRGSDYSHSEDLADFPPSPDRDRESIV
T1 sequence (Q15858 whole entry): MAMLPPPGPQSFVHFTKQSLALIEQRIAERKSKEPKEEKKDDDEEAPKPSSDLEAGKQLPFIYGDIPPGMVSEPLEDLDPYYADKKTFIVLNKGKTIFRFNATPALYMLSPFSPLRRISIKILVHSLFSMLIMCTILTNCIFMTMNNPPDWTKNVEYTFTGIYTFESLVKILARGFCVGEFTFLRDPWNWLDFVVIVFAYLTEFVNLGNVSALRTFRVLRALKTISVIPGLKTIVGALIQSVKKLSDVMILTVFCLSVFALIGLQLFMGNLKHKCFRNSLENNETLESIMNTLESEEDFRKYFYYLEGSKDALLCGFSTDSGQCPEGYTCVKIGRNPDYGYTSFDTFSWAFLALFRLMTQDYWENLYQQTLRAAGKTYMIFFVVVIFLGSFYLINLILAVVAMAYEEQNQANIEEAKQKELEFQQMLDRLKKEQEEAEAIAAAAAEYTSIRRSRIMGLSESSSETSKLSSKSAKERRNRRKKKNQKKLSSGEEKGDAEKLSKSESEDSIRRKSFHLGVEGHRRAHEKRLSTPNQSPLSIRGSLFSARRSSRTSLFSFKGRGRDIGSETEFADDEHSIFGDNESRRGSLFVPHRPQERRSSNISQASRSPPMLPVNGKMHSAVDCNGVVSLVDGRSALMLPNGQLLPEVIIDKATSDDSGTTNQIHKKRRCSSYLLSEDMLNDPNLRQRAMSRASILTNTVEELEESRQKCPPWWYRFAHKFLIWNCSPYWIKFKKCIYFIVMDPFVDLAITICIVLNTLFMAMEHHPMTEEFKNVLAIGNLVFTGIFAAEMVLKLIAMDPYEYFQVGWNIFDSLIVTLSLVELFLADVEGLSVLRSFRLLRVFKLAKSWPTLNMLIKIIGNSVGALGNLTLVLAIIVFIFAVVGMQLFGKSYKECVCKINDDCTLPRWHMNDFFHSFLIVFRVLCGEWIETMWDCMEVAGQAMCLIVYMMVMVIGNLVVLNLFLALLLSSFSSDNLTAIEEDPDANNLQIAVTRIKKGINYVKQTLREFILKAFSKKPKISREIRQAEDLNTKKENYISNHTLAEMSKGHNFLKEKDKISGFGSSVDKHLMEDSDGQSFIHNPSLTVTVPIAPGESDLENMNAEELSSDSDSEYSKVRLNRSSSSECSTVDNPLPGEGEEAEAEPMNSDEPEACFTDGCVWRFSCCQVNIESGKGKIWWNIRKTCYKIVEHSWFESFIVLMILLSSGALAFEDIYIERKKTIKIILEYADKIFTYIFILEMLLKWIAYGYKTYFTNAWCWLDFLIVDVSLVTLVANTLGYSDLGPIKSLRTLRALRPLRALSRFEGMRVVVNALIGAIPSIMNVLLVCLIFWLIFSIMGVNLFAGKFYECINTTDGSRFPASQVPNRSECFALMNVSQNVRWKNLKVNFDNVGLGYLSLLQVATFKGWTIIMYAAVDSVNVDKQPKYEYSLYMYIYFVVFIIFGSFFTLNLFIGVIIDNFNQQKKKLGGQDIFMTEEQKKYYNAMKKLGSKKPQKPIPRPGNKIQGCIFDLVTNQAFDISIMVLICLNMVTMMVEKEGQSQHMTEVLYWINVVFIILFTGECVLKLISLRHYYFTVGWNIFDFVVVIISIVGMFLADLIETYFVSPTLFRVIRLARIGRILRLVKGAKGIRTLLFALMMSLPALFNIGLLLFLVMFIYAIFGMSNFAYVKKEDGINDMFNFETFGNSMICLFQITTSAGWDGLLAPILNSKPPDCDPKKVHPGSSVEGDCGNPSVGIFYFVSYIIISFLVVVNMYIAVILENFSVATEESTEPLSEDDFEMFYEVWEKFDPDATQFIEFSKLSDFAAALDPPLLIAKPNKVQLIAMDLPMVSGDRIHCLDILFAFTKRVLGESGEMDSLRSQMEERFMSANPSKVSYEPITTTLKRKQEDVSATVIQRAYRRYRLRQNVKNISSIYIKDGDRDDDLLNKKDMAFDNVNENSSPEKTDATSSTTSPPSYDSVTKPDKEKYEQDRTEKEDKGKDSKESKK
Chain of hERG (Q12809 whole entry): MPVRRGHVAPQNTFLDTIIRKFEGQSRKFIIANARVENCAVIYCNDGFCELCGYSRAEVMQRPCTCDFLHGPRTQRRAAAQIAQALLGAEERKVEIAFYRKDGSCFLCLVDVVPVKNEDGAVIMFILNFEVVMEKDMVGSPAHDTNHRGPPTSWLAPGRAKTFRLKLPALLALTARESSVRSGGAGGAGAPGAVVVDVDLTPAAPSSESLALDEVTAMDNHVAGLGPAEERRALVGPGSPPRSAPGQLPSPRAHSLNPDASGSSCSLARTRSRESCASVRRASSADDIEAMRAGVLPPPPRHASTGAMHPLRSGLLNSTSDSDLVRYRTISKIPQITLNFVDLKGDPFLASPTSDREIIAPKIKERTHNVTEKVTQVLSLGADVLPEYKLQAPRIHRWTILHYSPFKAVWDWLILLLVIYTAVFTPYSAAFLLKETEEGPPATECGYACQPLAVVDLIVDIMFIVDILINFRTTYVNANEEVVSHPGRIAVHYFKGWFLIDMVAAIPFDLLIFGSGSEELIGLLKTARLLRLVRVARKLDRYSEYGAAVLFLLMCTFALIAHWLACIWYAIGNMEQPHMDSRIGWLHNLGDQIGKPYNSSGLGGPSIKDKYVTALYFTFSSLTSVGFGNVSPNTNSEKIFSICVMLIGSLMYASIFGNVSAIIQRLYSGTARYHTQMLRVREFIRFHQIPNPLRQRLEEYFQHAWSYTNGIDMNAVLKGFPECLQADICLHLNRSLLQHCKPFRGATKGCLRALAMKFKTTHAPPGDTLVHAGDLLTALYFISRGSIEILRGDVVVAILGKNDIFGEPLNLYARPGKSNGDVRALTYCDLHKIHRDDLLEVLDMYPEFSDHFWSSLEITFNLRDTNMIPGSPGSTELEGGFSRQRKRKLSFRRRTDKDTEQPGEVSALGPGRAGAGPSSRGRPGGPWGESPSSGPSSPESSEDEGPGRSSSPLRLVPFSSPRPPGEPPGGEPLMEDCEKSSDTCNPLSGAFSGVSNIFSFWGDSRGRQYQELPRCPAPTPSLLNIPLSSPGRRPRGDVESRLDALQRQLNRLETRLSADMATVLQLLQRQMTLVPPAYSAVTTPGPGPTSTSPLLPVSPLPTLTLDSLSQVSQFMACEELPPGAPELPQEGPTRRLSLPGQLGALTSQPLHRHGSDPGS

Substance: 18 (GSNCAGYMRECKEKLCCSGYVCSSRWKWCVLPAPWRR) [compound 18]
- Activity of Nav1.7 with peptide, expressed as a percentage of the reference compound [1, 19]: 85%
- Activity of Nav1.7 with peptide, expressed as a percentage of the reference compound [1, 20]: 84%
- Activity of Nav1.7 with peptide (percentage of the reference compound) [1, 19]: 43%
- Activity of Nav1.7 with peptide (percentage of the reference compound) [1, 20]: 55%
- Activity of Nav1.5 with peptide, expressed as a percentage of the reference compound [2, 21]: 104%
- Activity of Nav1.5 with peptide, expressed as a percentage of the reference compound [2, 22]: 106%
- Activity of Nav1.5 with peptide (percentage of the reference compound) [2, 21]: 87%
- Activity of Nav1.5 with peptide (percentage of the reference compound) [2, 22]: 112%
- Activity of hERG with peptide, expressed as a percentage of the reference compound ([3]; peptide at 0.2 μM): 98%
- Activity of hERG with peptide (percentage of the reference compound) ([3]; peptide at 20 μM): 62%
- Activity of GABA with peptide, expressed as a percentage of the reference compound ([4]; peptide at 0.2 μM): 113%
- Activity of GABA with peptide (percentage of the reference compound) ([4]; peptide at 20 μM): 106%
- Activity of a4b2 with peptide, expressed as a percentage of the reference compound ([5]; peptide at 0.2 μM): 109%
- Activity of a4b2 with peptide (percentage of the reference compound) ([5]; peptide at 20 μM): 92%
- Activity of Cav2.1 with peptide, expressed as a percentage of the reference compound ([6]; peptide at 0.2 μM): 97%
- Activity of Cav2.1 with peptide (percentage of the reference compound) ([6]; peptide at 20 μM): 98%
- Activity of Cav2.2 with peptide, expressed as a percentage of the reference compound ([7]; peptide at 0.2 μM): 132%
- Activity of Cav2.2 with peptide (percentage of the reference compound) ([7]; peptide at 20 μM): 124%
- Activity of Kv2.1 with peptide, expressed as a percentage of the reference compound ([8]; peptide at 0.2 μM): 93%
- Activity of Kv2.1 with peptide (percentage of the reference compound) ([8]; peptide at 20 μM): 65%
- Activity of Kv1.3 with peptide, expressed as a percentage of the reference compound ([9]; peptide at 0.2 μM): 87%
- Activity of Kv1.3 with peptide (percentage of the reference compound) ([9]; peptide at 20 μM): 7%
- Activity of Kv1.1 with peptide, expressed as a percentage of the reference compound ([10]; peptide at 0.2 μM): 98%
- Activity of Kv1.1 with peptide (percentage of the reference compound) ([10]; peptide at 20 μM): 78%
- Activity of Kv1.2 with peptide, expressed as a percentage of the reference compound ([11]; peptide at 0.2 μM): 67%
- Activity of Kv1.2 with peptide (percentage of the reference compound) ([11]; peptide at 20 μM): 30%
- Activity of 5HT3a with peptide (percentage of the reference compound) [12]: 79%
- Activity of 5HT3a with peptide, expressed as a percentage of the reference compound [12]: 95%
- Activity of Kir2.1 with peptide, expressed as a percentage of the reference compound ([13]; peptide at 0.2 μM): 104%
- Activity of Kir2.1 with peptide (percentage of the reference compound) ([13]; peptide at 20 μM): 93%
- Activity of NR2B with peptide, expressed as a percentage of the reference compound ([14]; peptide at 0.2 μM): 107%
- Activity of NR2B with peptide (percentage of the reference compound) ([14]; peptide at 20 μM): 78%
- Activity of a3b4 with peptide, expressed as a percentage of the reference compound ([15]; peptide at 0.2 μM): 110%
- Activity of a3b4 with peptide (percentage of the reference compound) ([15]; peptide at 20 μM): 89%
- Activity of TRPA1 with peptide, expressed as a percentage of the reference compound ([16]; peptide at 0.2 μM): 130%
- Activity of TRPA1 with peptide (percentage of the reference compound) ([16]; peptide at 20 μM): 89%
- Activity of TRPV1 with peptide, expressed as a percentage of the reference compound ([17]; peptide at 0.2 μM): 93%
- Activity of TRPV1 with peptide (percentage of the reference compound) ([17]; peptide at 20 μM): 61%
- Activity of NR2A with peptide, expressed as a percentage of the reference compound ([18]; peptide at 0.2 μM): 98%
- Activity of NR2A with peptide (percentage of the reference compound) ([18]; peptide at 20 μM): 79%
